This data set can be described thus: label from the status in PepcDB records.
On to “MKRIFSLLEKTWLGAPIQFAWQKTSGNYLAVTGADYIVKIFDRHGQKRSEINLPGNCVAMDWDKDGDVLAVIAEKSSCIYLWDANTNKTSQLDNGMRDQMSFLLWSKVGSFLAVGTVKGNLVIYNHQTSRKIPVLGKHTKRITCGCWNAENLPALGGEDKMITVSNQEGDTIRQTQVRSEPSNMQFFLMKMDDRTSAAESMISVVLGKKTLFFLNLNEPDNPADLEFQQDFGNIVCYNWYGDGRIMIGFSCGHFVVISTHTGELGQEIFQARNHKDNLTSIAVSQTLNKVATCGDNCIKIQDLVDLKDMYVILNLDEENKGLGTLSWTDDGQLLALSTQRGSLHVFLTKLPILGDACSTRIAYLTSLLEVTVANPVEGELPITVSVDVEPNFVAVGLYHLAVGMNNRAWFYVLGENAVKKLKDMEYLGTVASICLHSDYAAALFEGKVQLHLKAKSWMLTKNVRLGFSQQWMISAVSYAMP”, for which the protein production result was “failed”. Take “MLTTQITQTYHLTTPIISAGMAFVATPKLAAAVSNAGGMGTFSAFMSPPEELRALIRQTRSLSDRPFGIDFITAAANDDHIAICMAERVPVVIFFWSFPPLDWVTQLQNAGVKVWMQVGSLAEATQAKAQGFDAIIAQGQEGGGHNRSEASIFSLLPAICREVAPIPVIAAGGIIDGRGLVAALALGAEAVWCGTRFLASEEAYAHPEYKARVVTATVGDTTRTTLFGPEMPGQLMRVLRNLAVNQWGDRVADATKHGPTQPAIGSTILGGQALPMPKFSAILPTPDTSGDFEEMCLTAGESSGNITAIKSARDILWEMENEALDLLTYRLQAITKEQNLMAAG”: the protein production entry was “failed”.

As to “MNSAPFLIFGGILAWLFVYFLRLRRFYAGEFLLGLFIFGIAITIQSIIQKASLVWFNVHAKLLISLWLGFLAGFIQEGIKYIFVKGMTPYKGAMVGLGFGIAEVILLAVVATLAGSSNVPLYLLVASATERFFAVVFHVASTSLLASSNLRIFLGVFTVHGLVDTLASYSQLSRVLNTPKVFLIEAVFGVFALFLLLISLPRIRVEKEEGPKW”, the protein production result is “failed”. Consider “KLLAEALELTEDQYVVSFQSQFGRAKWVTPSTQDLFGKLPKQGVTELDVFCPGFLADCLETMEEIALMGREQFYEAGGKSYRYIPCLNDNPDWIDALVALAEENLGSWR”, for which the protein production result is given as “failed”.

“MSANMHIFENPSALAEALADDVGARLAAAIAARGTASLAVSGGSTPKAFFRSLSRRELDWSKVTVTLVDERFVPPENDRSNHRLVADNLLKDGAAEARFVPLYQAAETAEAAAAIASGRTASLGAPLDVVVLGMGTDGHTASFFPGGTRLEEALDPTTPRGVITMEAEGAGEPRLTFTFSSLQDAGYLVLHIEGSGKKEVLAQAEASGDEAEMPIRAMLRRAASPLQIYWAP”: the protein production result is given as “failed”. For “MREEELNTEKVVAAIANPVENEVRKVWEDVVEKIEQRVAVIEQASHKLLQNKVSEEILSKAKVEAHKLAGSLGMFGSDEGSQIAQEIESLLDNGKKLKASGGKHLGQVVEALHQELENLKSGLEHHHHHH”, the protein production entry was “not failed”. “MDYKSKTANDKEISIYYFSATGNSLKLSQDIAAAFGGAGLFRMTPSAGITASDSRIVGFIFPVYMGGLPGIVRRFLESYPFRKGVYYFSIGTYYTYKGCAVSVVDKIMSGKGVRLDYGYNLPTVGNCLKEYEVSSVRRTKILERAELYTSRIIDDLKKGKRKKPFPYCRLSDLLHKGLFNAFFSRSHLNFSLENGCMGCGVCERVCPVNNITLKNGVPRWGTGCEACHACVHWCPRNVIQIGKSKGRLQYHHPAVKRTMLYRVELEHHHHHH”: the protein production entry is “not failed”.

For “MRNDLFNREKSRQLSLTPRTEKIEVKHVGKTDPGTVFVMNKNISTPYSCAMHLSEWYCSKSILALVDGQPWDMYKPLTKSCEIKFLTFKDPDPREVNKAYWRSCAMMLGCVIERAFKDDYVVSLLRAPEVPVIAGAFCYDVTLDKRLDEWMPTKENLRSFTKDAHALIYRDLPFETLDVDARVALEIFQHNKYKVDFIEEKASQNPERIVKLHRIGDFIDVSEGPLIPRTSVCFQYEVSAVHNLNPSQPNLIRRFQGLSLPTHLRAQFTIWDKLVGRSRKMVTEDEVRQTENTESTQ”, the protein production result is “failed”. Turning to “MGHHHHHHSHMPSYTVTVATGSQWFAGTDDYIYLSLVGSAGCSEKHLLDKPFYNDFERGAVDSYDVTVDEELGEIQLVRIEKRKYWLNDDWYLKYITLKTPHGDYIEFPCYRWITGDVEVVLRDGRAKLARDDQIHILKQHRRKELETRQKQYRWMEWNPGFPLSIDAKCHKDLPRDIQFDSEKGVDFVLNYSKAMENLFINRFMHMFQSSWNDFADFEKIFVKISNTISERVMNHWQEDLMFGYQFLNGCNPVLIRRCTELPEKLPVTTEMVECSLERQLSLEQEVQQGNIFIVDFELLDGIDANKTDPCTLQFLAAPICLLYKNLANKIVPIAIQLNQIPGDENPIFLPSDAKYDWLLAKIWVRSSDFHVHQTITHLLRTHLVSEVFGIAMYRQLPAVHPIFKLLVAHVRFTIAINTKAREQLICECGLFDKANATGGGGHVQMVQRAMKDLTYASLCFPEAIKARGMESKEDIPYYFYRDDGLLVWEAIRTFTAEVVDIYYEGDQVVEEDPELQDFVNDVYVYGMRGRKSSGFPKSVKSREQLSEYLTVVIFTASAQHAAVNFGQ”, the protein production entry was “failed”. Regarding “MDFGTQGPQAPAELAWLRGVDAYTMGAYPQAEEEFRAAVRIDPTMADGWLGLHALRVDTTNALLRMFRNRDRFGEQRARHRRTLNSWYWLGWWVQPVLENPRDLLLAHASHWLDGRHVPELDRALAGLPPVDSDAQVRFLHACRAYLVKDWEQLVRHTDPLLGDPLLGIEAGLFSGMARVRLEMYGQAEPLLSAALMRCRSEQPQRKELRYWLARAHEGTGRSAAALPLYRAVHRVDPAFMDTSARLAAIAEGDGYDDPADLTGYAQAGAGTDGLDGLDPLFGTEERGVKVSAPEPALSAPLPPLGGPSVREKAGGPDPSLPSGPTDPALLEEALAELERMVGLEPVKRQVKALSAQLNMARLRAGQGLPVQPPKRHFVFSGPSGTGKTTVARILGRVFYALGLLGGDHLVEAQRADLVGEYLGQTAVKANELIDSALGGVLFVDEAYSLSNSGYGKGDAYGDEALQVLLKRAEDNRDHLVVILAGYPEGMDRLLGANPGLSSRFTTRVDFPSYRPLELTSIGEVLAAENGDVWDEEALDELRSIAGHVVDQGWIDELGNGRFLRTLYEKSCAYRDLRLSVYPGALTRDDLATLRLPDLMQAYGEVLSGRGPGGPSAG”, the protein production result was “failed”.

Take “MIKRLKVNVIDLSSLVYLIFAVIPLFTFDLKGPYWMYVIIFIIFTISYTALAIFTEVLSTKMIYTFLILHYIGITYLVYSVGPATSLFFFFSSFILPYVLKVKMKSIAFLIFIVVMLINFILIYVADPLSLGFIAVMHIAILLITVGNFKQSETIKMKNALEEKNKHINVLIAEQERNRIGQDLHDTLGHVFASSSIKSELAIKLIDSDSEKAKLQMIEVNNISKESLNKVRSIVNDLKIQSFEEEVASMETLLKNANLNFEFFNAELAKGISPAKQAILAMILREAINNVLKHAHATSVTGSLTETQNDITLTIIDNGIGMDDLKEHDLKSIKERVALMNGSIEIQSNHGLCISIKISRGDA”: the protein production entry is recorded as “failed”. The result for “MSLEERVKEIIAEQLGVEKEKITPEAKFVEDLGADSLDVVELIMAFEEEFGIEIPDEDAEKIQTVGDVINYLKEKVGG” reads “not failed”; that for “MRILILGMGGTIASVKGERGYESALSVSKILKLAGISSEAKIEARDLMNVDSTLIQPSDWERLAKEIEKEVWEYDGIVITHGTDTMAYSASMLSFMLRNPPIPIVLTGSMLPITEKNSDAPFNLRTALEFVKLGIRGIYIAFNGKVMLGVRASKIRSMGFDAFESINYPNVAEIKDDKLRILHIPDFYGDEFFSDIKYEPKVLVIKLIPGLSGDIVREALRLGYKGIILEGYGVGGIPYRGTDLFEVVSSISKRIPVVLTTQAIYDGVDLQRYKVGRIALEAGVIPAGDMTKEATITKLMWILGHTKNIEEVKQLMGKNITGELTRVS”, “not failed”.

Take “MLISKKTLGVLIPDIFSFSNDQIAQKLEQMGIEVESIKQFNSPDYLQLAKVVSIQPHPHDNKLFICELQIDKNKFINVVSNANNINNPDNINKFVIVAKKGTELLNGLIVKTQNIKGIISEGILCSYIDINPFSRQIIEKTEVADAIIIDHVSNDHDWNQYLSFLSLDDVIFDVKTPTNRADLHSLIFLAKELGVLLKTKTFLKQKSSVVNHDFFKFPLNLKNKLKANYFGGLFLRQINQHSSPWTVKGLLINQMIKPVNYYVDKANLVTVFTAQPIHCHDADRIVGNIELKQATHNETFVGLDDKQYEIEPGDIVVCDEKGIIALVGIIGSKRTMVQPTTTNIFFEVVNCNSETIKQTAKRFLINNFASKFMVKPISLLATDNCLNYLQNSLLTTDNIGKISHFSSSLKVEPFSKKLTVNFHKIRQLIGIEKKELTDQTIKKSLSQLGFKVDNQLLKIPSYRQDINTWQDISEEIVKLIDINKLKPIGITSSFNFEKSSYFNTFNALTKLRKKLQTLGFHNVITYQLTDQKSAKTFNLFNLENFITIKNPVSQNHSVMRVSLIDSLLKVLKTNNNYKNELVNIFEFSFIKTQNNSELHLAVLWVEKLFTSSFNPMQGISNDVFTMKGLAKLIVANLGFSCDFEPLDDSDYFVNNQSLKIVVFNEQIGFIGLIKESLLNNYDLNNKPIYCLEINLDRMLSSLNRIEKNYLGYSKLQPVCKDLTFSFTNPASHFDQFANMIKRITGIESWKLISVFETMQNNQLITKYTVRYFLKNDANKPLTNQTIELITNNLKLQCEKLKIKLDI”: the protein production result was “failed”.

Regarding “MAANDRAAAPGKSGGSAGADGLMRASLSAVAPGTSLRDGLERVLRGNTGGLIVLGSDKTVESMCTGGFVLDVEFTATRLRELCKLDGGIVLSSDLSKILRAGVQLLPDPTIPTEETGTRHRTADRVSKQVGFPVVSVSQSMRLIALYVDGQRRVLEDSAAILSRANQALATLERYKLRLDEVAGTLSALEIEDLVTVRDVSAVAQRLEMVRRIATEIAEYVVELGTDGRLLALQLDELIAGVEPERELVVRDYVPEPTAKRSRTVDEALAELDKLSHAELLELSTVARALGYTGSPETLDSAVSPRGFRLLAKVPRLPGAIIDRLVEHFGGLQKLLAASVDDLQTVDGVGEARARSVREGLSRLAESSILERYV”, the protein production entry is listed as “not failed”.

As for “MDINMFILYFFIYSVLGWAWEEVFCSISEKKLVYRGFLYGPYCPIYGFGVTTVLMMILPFQNNLWALFIFSMIICTVIEYVTATILEALFHTTWWDYHNWPLNVKGRICLPISIFWGFACIIVVRFLHPLVTEFADWVLSWGGWIIPALIVVLMLIDTIKSVTSMLSFQKVLAEFNEKLTAQANELKASVKERAKEFEEGLLKKQENVDMKIAEMEAKRKQDKELAASMRKLKFNERRMLKSFPKMKVKRAAPFKNFNKSILRVDKQKRK”, the protein production entry is “failed”.

As to “MSANDKLTILWTTDNKDTVFNMLAMYALNSKNRGWWKHINIILWGASVKLVANDTQVQTEILEMLQSGITIEACQDCCENFGVASIITNLGITVRYMGIPLTEYLKNGEKILSI”, the protein production result is “not failed”. Consider “MNFLVIGSSLAFLLYILATLAIVTRLFHPKGPNITLVLSLATAAIIVHGFNDGLLFFSQDTINFNLPNVISLVSLIITIAVTLVSLRFKVNLLLPVIYGFTGLWQLVILFIPPIDSIPLVVEKVILLSHISFALIAYCVLIIATLYAFQVTYINLKLKSKNLTAVAHLPPLMQVEKQLFSILTVGTAILFISQIIGFVFLDGFLAKENAHKTILSLLSFAIYGLILWGHFEKGWRGHKVLVLMVSASALLTLAYFGSRFVKEFIL”, for which the protein production entry is “failed”. “MTTVIVANDLVGFGKVALTSSLLPIMSACQTEVLPLPTVLLSSHTGEFDNIYVRYLTVDMQGFCGQWKRLDFRVDGLVGGYFKSEEELGLVSQCLTKKRFLFLLDPIMGDNGRLYQGFDRDYVEAMKDFCQQADVIIPNLTEAALLTGSPYLEEGSYDMTTIENLLRNLSRLGPRKVILTGISFETEKIGLAYFDKETNQVIYRMRKRYQSHFYGSGDLLTAILSAGYFHNLDFLKVCDLALDFLNKVLLFTLSSGRPLKYGLCYEPLYRLFILEHHHHHH”: the protein production result is “not failed”.

The values above are taken from a protein production outcome set (Wang et al. 2014).
